Laboratory results from patent US12018327B2, “Methods and compositions relating to epoxide hydrolase genes” (The Regents of the University of California, priority 2018, dated 2024).

Columns and labels:
PPARγ = target: T1, PPARγ (Homo sapiens, UniProt P37231); settings: ref [19]; cited from earlier work
T1 sequence (P37231 1-505): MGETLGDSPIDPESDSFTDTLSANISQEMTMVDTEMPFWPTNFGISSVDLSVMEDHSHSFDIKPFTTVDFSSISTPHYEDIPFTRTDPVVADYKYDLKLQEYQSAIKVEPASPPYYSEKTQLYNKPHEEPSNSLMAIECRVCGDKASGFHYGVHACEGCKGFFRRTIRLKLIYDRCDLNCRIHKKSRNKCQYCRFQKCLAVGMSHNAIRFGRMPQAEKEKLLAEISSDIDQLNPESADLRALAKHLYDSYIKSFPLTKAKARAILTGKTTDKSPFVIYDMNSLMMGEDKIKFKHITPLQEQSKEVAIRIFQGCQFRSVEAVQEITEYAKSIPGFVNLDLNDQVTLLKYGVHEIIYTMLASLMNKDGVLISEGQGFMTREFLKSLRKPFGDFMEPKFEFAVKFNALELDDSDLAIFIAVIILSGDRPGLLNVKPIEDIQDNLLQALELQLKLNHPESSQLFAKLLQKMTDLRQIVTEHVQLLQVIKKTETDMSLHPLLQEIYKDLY

[1] = Colorimetric detection of EH activity, 12,13 EpOME; format: biochemical; settings: gene expressed in E. coli BL21

CCCCC/C=C\CC(O)C(O)CCCCCCCC(=O)O (stereo not shown) [9,10 DiHOME]
action on PPARγ (PPARγ): known agonist

B1: NP_814872: Enterococcus faecalis epoxide hydrolase (HAD superfamily hydrolase) encoded by Gene 1, expressed in E. coli (protein)
chain: MSIKLVAIDIDGTLLNSQHKITPRVKEALQKANEQGVRIVLCTGRPLPGVKEQLDELALYGENDFVITYNGSLVQATKDNTIISRYTLSYEDFLEIEMYSRKVGAHLHTIDDSAIYTANRNIGKYTIHEASLVNMPLKYRTVDEMTPEMNIIKMMMIDEPEVLDPAIAKLPLHFTEKYTTVKSTPFYYEIMNKNASKGNALAKLADHLGLNKDEVMAIGDNENDLSMIDYAGIGVAMGNATENVKTIADVHTTSNDEDGVAQIIEKMVLI
conversion of 12,13 EpOME into 12,13 DiHOME [1]: could convert

B2: YP_003971091: Bifidobacterium bifidum PRL2010 hydrolase (epoxide hydrolase) encoded by Gene 2, expressed in E. coli (protein)
chain: MSQHQVTTRQRRNVVLLDLDGTLTQSDPGIIACATKAFEELSLPVPDDQEMHRFIGPAIIESFRRNHMPDELLDRGVEIYREYYADKAVFDDPNNPGHKIPGRLYNSVYAGIPEQLAALRADGLHLAIATCKPQYQAEPVCEHFHLDTMVDGIYGASTDNSRIDKDQVIRYCFDSIGFDADAGDRALMVGDRWTDVDGAIACGLDCLGCRWGYAEAGELEEHGAYRIIDTVDELAAAVNDYFAK
conversion of 12,13 EpOME into 12,13 DiHOME [1]: could convert

B3: YP_003971333: Bifidobacterium bifidum PRL2010 hydrolase (epoxide hydrolase) encoded by Gene 3, expressed in E. coli (protein)
chain: MASDDIMTAGAGGATATVRADIKAAFFDIDGTLTSFVTHVIPQSSIDALHELQDRGVKVFICSGRAPSHMTVVLDMMPVHFDGIIALNGQYCFDDHGLLEKESLLPEDIVTITRWLDEHPDVVANYCEKDYVYFNQITDAMRATWRQLGKTAPTVNIDDPHERALKHETFQISPYISFEDEAKLSGMCRNVRGVRWHPDFTDLIPADGGKPEGMKRFMRHYGWTREQTIAFGDGGNDADMLAFAGIGVAMGNATEPAKAAADYITDDVDHDGIMNALKHFNVL
conversion of 12,13 EpOME into 12,13 DiHOME [1]: could convert
